Measured values as given in the supplement of paper PMC10724198.
± gives the standard deviation of the averaged measurements.

Tests used:
[1] = system: Saccharomyces cerevisiae; assay: protein stability index of tFT-peptide fusion (C-terminal peptide) (PSI (0-1 scale)); higher = more stable (slower turnover)
Experimental: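 MPS profiling in S. cerevisiae of the tFT-X12 degron library: putative degron peptides plus stable controls, 12 aa, fused to the C-terminus of a sfGFP-mCherry timer. Cells are FACS-sorted into 8 mCherry/sfGFP bins and deep-sequenced. PSI runs from 0 (unstable) to 1 (stable). Backgrounds are wild type, das1Δ and doa10Δ at 30 °C, and wild type, das1Δ, cdc34-1 and cdc53-1 at 37 °C; 2-3 technical replicates each.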

[2] = system: Saccharomyces cerevisiae; assay: as above; details: genetic background: wild type; temperature: 30 C
[3] = genetic background: cdc34-1, temperature: 37 C
[4] = genetic background: cdc53-1, temperature: 37 C
[5] = genetic background: das1 deletion, temperature: 30 C
[6] = genetic background: das1 deletion, temperature: 37 C
[7] = genetic background: doa10 deletion, temperature: 30 C
[8] = genetic background: wild type, temperature: 30 C
[9] = genetic background: wild type, temperature: 37 C
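Also: PSI is a weighted mean of sequencing reads over stability bins, variants kept only with over 10 reads, mCherry proximal and sfGFP distal, peptide attached via GGGS linker.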

| Sequence | protein stability index [1, 3] | protein stability index [1, 4] | protein stability index [1, 5] | protein stability index [1, 6] | protein stability index [1, 7] | protein stability index [1, 8] | protein stability index [1, 9] | protein stability index [2] |
| --- | --- | --- | --- | --- | --- | --- | --- | --- |
| RWGLCFVHVTMF | 0.0369 ± 0.011 | 0.0963 ± 0.011 | 0.149 ± 0.046 | 0.215 ± 0.015 | 0.115 ± 0.01 | 0.106 ± 0.039 | 0.152 ± 0.014 | 0.173 ± 0.011 |
| GLWLCRGLVRAW | 0.349 ± 0.026 | 0.382 ± 0.021 | 0.299 ± 0.021 | 0.46 ± 0.009 | 0.253 ± 0.001 | 0.289 ± 0.021 | 0.438 ± 0.014 | 0.43 ± 0.04 |
| VRVFSLVVCWVV | 0.297 ± 0.064 | 0.359 ± 0.0043 | 0.262 ± 0.026 | 0.441 ± 0.0051 | 0.199 ± 0.004 | 0.219 ± 0.028 | 0.367 ± 0.032 | 0.414 ± 0.037 |
| IVGVLAVLVRPV | 0.484 ± 0.029 | 0.561 ± 0.019 | 0.369 ± 0.03 | 0.5371 ± 0.0051 | 0.34 ± 0.011 | 0.376 ± 0.023 | 0.51 ± 0.017 | 0.466 ± 0.023 |
| PPSPVPPIWYLA | 0.636 ± 0.037 | 0.7595 ± 0.0041 | 0.707 ± 0.017 | 0.753 ± 0.029 | 0.233 ± 0.0083 | 0.261 ± 0.045 | 0.417 ± 0.019 | 0.372 ± 0.0055 |
| SLCVVIFFSSIT | 0.301 ± 0.011 | 0.437 ± 0.037 | 0.274 ± 0.031 | 0.468 ± 0.019 | 0.2524 ± 0.0025 | 0.266 ± 0.041 | 0.413 ± 0.0017 | 0.356 ± 0.02 |
| RRRRGGQSPALR | 0.651 ± 0.049 | 0.674 ± 0.0087 | 0.71 ± 0.032 | 0.6928 ± 0.0059 | 0.735 ± 0.022 | 0.717 ± 0.03 | 0.6636 ± 0.0065 | 0.711 ± 0.015 |
| AFFCTLCLFLVS | 0.44 ± 0.02 | 0.472 ± 0.033 | 0.36 ± 0.036 | 0.496 ± 0.012 | 0.3064 ± 0.002 | 0.323 ± 0.037 | 0.478 ± 0.023 | 0.402 ± 0.014 |
| LFLEVCFFRLYF | 0.511 ± 0.055 | 0.555 ± 0.037 | 0.447 ± 0.032 | 0.54 ± 0.011 | 0.46 ± 0.02 | 0.453 ± 0.032 | 0.5086 ± 0.0018 | 0.465 ± 0.032 |
